From the supplement of paper PMC5998384

How the values were obtained:
HeLa Kyoto [1] = assay: solubility in G1/S (NP-40 vs SDS abundance) (log2 ratio); higher = more soluble; details: cell cycle stage: G1/S
HeLa Kyoto [2] = assay: melting temperature (median over replicates), in situ; higher = more thermally stable
HeLa Kyoto [3] = assay: solubility change mitosis vs G1/S (difference of NP-40 vs SDS log2 ratios) (log2 ratio difference); higher = more soluble in mitosis
HeLa Kyoto [4] = assay: thermal stability score vs G1/S (z-score of summed log2 fold changes over temperatures); higher = more thermally stable than in G1/S
[5] = cell cycle stage: early G1 (4.5 h after nocodazole release)
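Wherever melting temperature (median over replicates), in situ is given: HeLa Kyoto cells synchronized by double thymidine or nocodazole block, proteins quantified by TMT10plex mass spectrometry, three independent biological replicates.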
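Wherever solubility change mitosis vs G1/S (difference of NP-40 vs SDS log2 ratios) is given: synchronized HeLa Kyoto cells (double thymidine block for G1/S, nocodazole release for mitosis), protein amounts in NP-40 versus SDS lysates quantified by mass spectrometry, three biological replicates.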
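Wherever solubility in G1/S (NP-40 vs SDS abundance) is given: HeLa Kyoto cells arrested at G1/S by double thymidine block, proteins quantified by TMT10plex mass spectrometry in mild NP-40 versus SDS extracts, three biological replicates.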
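Wherever thermal stability score vs G1/S (z-score of summed log2 fold changes over temperatures) is given: synchronized HeLa Kyoto cells, proteins quantified by TMT10plex mass spectrometry, three biological replicates, mitosis taken 0.5 h after nocodazole release, G1/S directly after double thymidine block.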

| Sequence | solubility in G1/S (log2) (HeLa Kyoto [1]) | melting temperature (HeLa Kyoto [2]; cell cycle stage: G1/S) | melting temperature (HeLa Kyoto [2]; cell cycle stage: mitosis) | solubility change mitosis (log2) (HeLa Kyoto [3]) | thermal stability score (HeLa Kyoto [4]; [5]) | thermal stability score (HeLa Kyoto [4]; cell cycle stage: mitosis) |
| --- | --- | --- | --- | --- | --- | --- |
| MKKAEMGRFSISPDEDSSSYSSNSDFNYSYPTKQAALKSHYADVDPENQNFLLESNLGKKKYETEFHPGTTSFGMSVFNLSNAIVGSGILGLSYAMANTGIALFIILLTFVSIFSLYSVHLLLKTANEGGSLLYEQLGYKAFGLVGKLAASGSITMQNIGAMSSYLFIVKYELPLVIQALTNIEDKTGLWYLNGNYLVLLVSLVVILPLSLFRNLGYLGYTSGLSLLCMVFFLIVVICKKFQVPCPVEAALIINETINTTLTQPTALVPALSHNVTENDSCRPHYFIFNSQTVYAVPILIFSFVCHPAVLPIYEELKDRSRRRMMNVSKISFFAMFLMYLLAALFGYLTFYEHVESELLHTYSSILGTDILLLIVRLAVLMAVTLTVPVVIFPIRSSVTHLLCASKDFSWWRHSLITVSILAFTNLLVIFVPTIRDIFGFIGASAASMLIFILPSAFYIKLVKKEPMKSVQKIGALFFLLSGVLVMTGSMALIVLDWVHNAPGGGH [SLC38A2] | 0.157 | 57.5 °C | 57.6 °C | -0.301 | -0.691 | -0.748 |
| MKKEHVLHCQFSAWYPFFRGVTIKSVILPLPQNVKDYLLDDGTLVVSGRDDPPTHSQPDSDDEAEEIQWSDDENTATLTAPEFPEFATKVQEAINSLGGSVFPKLNWSAPRDAYWIAMNSSLKCKTLSDIFLLFKSSDFITRDFTQPFIHCTDDSPDPCIEYELVLRKWCELIPGAEFRCFVKENKLIGISQRDYTQYYDHISKQKEEIRRCIQDFFKKHIQYKFLDEDFVFDIYRDSRGKVWLIDFNPFGEVTDSLLFTWEELISENNLNGDFSEVDAQEQDSPAFRCTNSEVTVQPSPYLSYRLPKDFVDLSTGEDAHKLIDFLKLKRNQQEDD [CDC123] | -0.058 | 51.7 °C | 50.8 °C | -0.111 | 1.5 | 0.565 |
| MKKMSRNVLLQMEEEEDDDDGDIVLENLGQTIVPDLGSLESQHDFRTPEFEEFNGKPDSLFFNDGQRRIDFVLVYEDESRKETNKKGTNEKQRRKRQAYESNLICHGLQLEATRSVLDDKLVFVKVHAPWEVLCTYAEIMHIKLPLKPNDLKNRSSAFGTLNWFTKVLSVDESIIKPEQEFFTAPFEKNRMNDFYIVDRDAFFNPATRSRIVYFILSRVKYQVINNVSKFGINRLVNSGIYKAAFPLHDCKFRRQSEDPSCPNERYLLYREWAHPRSIYKKQPLDLIRKYYGEKIGIYFAWLGYYTQMLLLAAVVGVACFLYGYLNQDNCTWSKEVCHPDIGGKIIMCPQCDRLCPFWKLNITCESSKKLCIFDSFGTLVFAVFMGVWVTLFLEFWKRRQAELEYEWDTVELQQEEQARPEYEARCTHVVINEITQEEERIPFTAWGKCIRITLCASAVFFWILLIIASVIGIIVYRLSVFIVFSAKLPKNINGTDPIQKYLTPQTATSITASIISFIIIMILNTIYEKVAIMITNFELPRTQTDYENSLTMKMFLFQFVNYYSSCFYIAFFKGKFVGYPGDPVYWLGKYRNEECDPGGCLLELTTQLTIIMGGKAIWNNIQEVLLPWIMNLIGRFHRVSGSEKITPRWEQDYHLQPMGKLGLFYEYLEMIIQFGFVTLFVASFPLAPLLALVNNILEIRVDAWKLTTQFRRLVPEKAQDIGAWQPIMQGIAILAVVTNAMIIAFTSDMIPRLVYYWSFSVPPYGDHTSYTMEGYINNTLSIFKVADFKNKSKGNPYSDLGNHTTCRYRDFRYPPGHPQEYKHNIYYWHVIAAKLAFIIVMEHVIYSVKFFISYAIPDVSKRTKSKIQREKYLTQKLLHENHLKDMTKNMGVIAERMIEAVDNNLRPKSE [ANO6] | 0.0135 | 54.6 °C | 54.3 °C | -0.0681 | 0.734 | 0.413 |
| MKLLTHNLLSSHVRGVGSRGFPLRLQATEVRICPVEFNPNFVARMIPKVEWSAFLEAADNLRLIQVPKGPVEGYEENEEFLRTMHHLLLEVEVIEGTLQCPESGRMFPISRGIPNMLLSEEETES [TRMT112] | 0.323 | 51.5 °C | 51.4 °C | 0.201 | -4.68 | -1.02 |
| MKLLTRAGSFSRFYSLKVAPKVKATAAPAGAPPQPQDLEFTKLPNGLVIASLENYSPVSRIGLFIKAGSRYEDFSNLGTTHLLRLTSSLTTKGASSFKITRGIEAVGGKLSVTATRENMAYTVECLRGDVDILMEFLLNVTTAPEFRRWEVADLQPQLKIDKAVAFQNPQTHVIENLHAAAYRNALANPLYCPDYRIGKVTSEELHYFVQNHFTSARMALIGLGVSHPVLKQVAEQFLNMRGGLGLSGAKANYRGGEIREQNGDSLVHAAFVAESAVAGSAEANAFSVLQHVLGAGPHVKRGSNTTSHLHQAVAKATQQPFDVSAFNASYSDSGLFGIYTISQATAAGDVIKAAYNQVKTIAQGNLSNTDVQAAKNKLKAGYLMSVESSECFLEEVGSQALVAGSYMPPSTVLQQIDSVANADIINAAKKFVSGQKSMAASGNLGHTPFVDEL [UQCRC2] | 0.243 | 55.8 °C | 54.7 °C | -0.00613 | -1.64 | -4.8 |
| MKLSRQFTVFGSAIFCVVIFSLYLMLDRGHLDYPRNPRREGSFPQGQLSMLQEKIDHLERLLAENNEIISNIRDSVINLSESVEDGPKSSQSNFSQGAGSHLLPSQLSLSVDTADCLFASQSGSHNSDVQMLDVYSLISFDNPDGGVWKQGFDITYESNEWDTEPLQVFVVPHSHNDPGWLKTFNDYFRDKTQYIFNNMVLKLKEDSRRKFIWSEISYLSKWWDIIDIQKKDAVKSLIENGQLEIVTGGWVMPDEATPHYFALIDQLIEGHQWLENNIGVKPRSGWAIDPFGHSPTMAYLLNRAGLSHMLIQRVHYAVKKHFALHKTLEFFWRQNWDLGSVTDILCHMMPFYSYDIPHTCGPDPKICCQFDFKRLPGGRFGCPWGVPPETIHPGNVQSRARMLLDQYRKKSKLFRTKVLLAPLGDDFRYCEYTEWDLQFKNYQQLFDYMNSQSKFKVKIQFGTLSDFFDALDKADETQRDKGQSMFPVLSGDFFTYADRDDHYWSGYFTSRPFYKRMDRIMESHLRAAEILYYFALRQAHKYKINKFLSSSLYTALTEARRNLGLFQHHDAITGTAKDWVVVDYGTRLFHSLMVLEKIIGNSAFLLILKDKLTYDSYSPDTFLEMDLKQKSQDSLPQKNIIRLSAEPRYLVVYNPLEQDRISLVSVYVSSPTVQVFSASGKPVEVQVSAVWDTANTISETAYEISFRAHIPPLGLKVYKILESASSNSHLADYVLYKNKVEDSGIFTIKNMINTEEGITLENSFVLLRFDQTGLMKQMMTKEDGKHHEVNVQFSWYGTTIKRDKSGAYLFLPDGNAKPYVYTTPPFVRVTHGRIYSEVTCFFDHVTHRVRLYHIQGIEGQSVEVSNIVDIRKVYNREIAMKISSDIKSQNRFYTDLNGYQIQPRMTLSKLPLQANVYPMTTMAYIQDAKHRLTLLSAQSLGVSSLNSGQIEVIMDRRLMQDDNRGLEQGIQDNKITANLFRILLEKRSAVNTEEEKKSVSYPSLLSHITSSLMNHPVIPMANKFSSPTLELQGEFSPLQSSLPCDIHLVNLRTIQSKVGNGHSNEAALILHRKGFDCRFSSKGTGLFCSTTQGKILVQKLLNKFIVESLTPSSLSLMHSPPGTQNISEINLSPMEISTFRIQLR [MAN2A1] | -0.0419 | 54.8 °C | 54.8 °C | -0.156 | 2.95 | 3.08 |
| MKMTVDFEECLKDSPRFRAALEEVEGDVAELELKLDKLVKLCIAMIDTGKAFCVANKQFMNGIRDLAQYSSNDAVVETSLTKFSDSLQEMINFHTILFDQTQRSIKAQLQNFVKEDLRKFKDAKKQFEKVSEEKENALVKNAQVQRNKQHEVEEATNILTATRKCFRHIALDYVLQINVLQSKRRSEILKSMLSFMYAHLAFFHQGYDLFSELGPYMKDLGAQLDRLVVDAAKEKREMEQKHSTIQQKDFSSDDSKLEYNVDAANGIVMEGYLFKRASNAFKTWNRRWFSIQNNQLVYQKKFKDNPTVVVEDLRLCTVKHCEDIERRFCFEVVSPTKSCMLQADSEKLRQAWIKAVQTSIATAYREKGDESEKLDKKSSPSTGSLDSGNESKEKLLKGESALQRVQCIPGNASCCDCGLADPRWASINLGITLCIECSGIHRSLGVHFSKVRSLTLDTWEPELLKLMCELGNDVINRVYEANVEKMGIKKPQPGQRQEKEAYIRAKYVERKFVDKYSISLSPPEQQKKFVSKSSEEKRLSISKFGPGDQVRASAQSSVRSNDSGIQQSSDDGRESLPSTVSANSLYEPEGERQDSSMFLDSKHLNPGLQLYRASYEKNLPKMAEALAHGADVNWANSEENKATPLIQAVLGGSLVTCEFLLQNGANVNQRDVQGRGPLHHATVLGHTGQVCLFLKRGANQHATDEEGKDPLSIAVEAANADIVTLLRLARMNEEMRESEGLYGQPGDETYQDIFRDFSQMASNNPEKLNRFQQDSQKF [ACAP2] | -0.0242 | 49.8 °C | – | -0.215 | 0.348 | 0.369 |
| MKNQDKKNGAAKQSNPKSSPGQPEAGPEGAQERPSQAAPAVEAEGPGSSQAPRKPEGAQARTAQSGALRDVSEELSRQLEDILSTYCVDNNQGGPGEDGAQGEPAEPEDAEKSRTYVARNGEPEPTPVVNGEKEPSKGDPNTEEIRQSDEVGDRDHRRPQEKKKAKGLGKEITLLMQTLNTLSTPEEKLAALCKKYAELLEEHRNSQKQMKLLQKKQSQLVQEKDHLRGEHSKAVLARSKLESLCRELQRHNRSLKEEGVQRAREEEEKRKEVTSHFQVTLNDIQLQMEQHNERNSKLRQENMELAERLKKLIEQYELREEHIDKVFKHKDLQQQLVDAKLQQAQEMLKEAEERHQREKDFLLKEAVESQRMCELMKQQETHLKQQLALYTEKFEEFQNTLSKSSEVFTTFKQEMEKMTKKIKKLEKETTMYRSRWESSNKALLEMAEEKTVRDKELEGLQVKIQRLEKLCRALQTERNDLNKRVQDLSAGGQGSLTDSGPERRPEGPGAQAPSSPRVTEAPCYPGAPSTEASGQTGPQEPTSARA [TXLNA] | 0.802 | 52.5 °C | 52.6 °C | 0.248 | 0.411 | -0.854 |
| MKPRPAGFVDNKLKQRVIQYLTSNKCGKYVDIGVLASDLQRVYSIDYGRRKRNAFRIQVEKVFSIISSEKELKNLTELEDEHLAKRARQGEEDNEYTESYSDDDSSMEDYPDPQSANHMNSSLLSLYRKGNPDSVSNTPEMEQRETTSSTPRISSKTGSIPLKTPAKDSEGGWFIDKTPSVKKDSFFLDLSCEKSNPKKPITEIQDSKDSSLLESDMKRKGKLKNKGSKRKKEDLQEVDGEIEAVLQKKAKARGLEFQISNVKFEDVGGNDMTLKEVCKMLIHMRHPEVYHHLGVVPPRGVLLHGPPGCGKTLLAHAIAGELDLPILKVAAPEIVSGVSGESEQKLRELFEQAVSNAPCIIFIDEIDAITPKREVASKDMERRIVAQLLTCMDDLNNVAATARVLVIGATNRPDSLDPALRRAGRFDREICLGIPDEASRERILQTLCRKLRLPQAFDFCHLAHLTPGFVGADLMALCREAAMCAVNRVLMKLQEQQKKNPEMEDLPSKGVQEERLGTEPTSETQDELQRLLGLLRDQDPLSEEQMQGLCIELNDFIVALSSVQPSAKREGFVTVPNVTWADIGALEDIREELTMAILAPVRNPDQFKALGLVTPAGVLLAGPPGCGKTLLAKAVANESGLNFISVKGPELLNMYVGESERAVRQVFQRAKNSAPCVIFFDEVDALCPRRSDRETGASVRVVNQLLTEMDGLEARQQVFIMAATNRPDIIDPAILRPGRLDKTLFVGLPPPADRLAILKTITKNGTKPPLDADVNLEAIAGDLRCDCYTGADLSALVREASICALRQEMARQKSGNEKGELKVSHKHFEEAFKKVRSSISKKDQIMYERLQESLSR [NVL] | -1.77 | 53.8 °C | 52.7 °C | 0.882 | 1.41 | 1.19 |
